Measured values taken from patent US10047131B2, “Peptides and combination of peptides for use in immunotherapy against ovarian cancer and other cancers” (immatics biotechnologies GmbH, priority 2015, dated 2018).

The substances below were run against HLA-A*02:01 (Homo sapiens, UniProt P04439, D140Y/D185E/D98H/E176V/E277Q/G131W/G231S/I119V/I121R/I166T/I218V/L300P/L318F/N151K/N90K/P208A/P217A/Q86G/Q94H/R138H/R169H/T345S) (assay: MHC binding assay (UV-ligand exchange, ELISA of exchange yield)). Details: binding to HLA-A*02:01, UV-ligand exchange.
In short: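 Peptide–MHC complexes made by UV-ligand exchange, where a UV-cleavable peptide is replaced by the test peptide. Exchange yield measured by ELISA: complexes diluted 100-fold on streptavidin-coated plates, stabilized complexes detected with HRP anti-β2m, TMB read at 450 nm.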

**Q.** How did the “Peptide exchange (MHC class I binding score, peptide exchange yield)” value (“Peptide exchange” for short) turn out when “36 (YVLEDLEVTV; listed as Homo sapiens) [compound 36]” was run?
**A.** Its value is ““++” (≥20% = ++)”.

**Q.** “372 (TMLLNIPLV; listed as Homo sapiens) [compound 372]” was tested. Which “Peptide exchange” value did it give?
**A.** Its value is ““++” (≥20% = ++)”.

**Q.** Which “Peptide exchange” value does the source give for “136 (YLADPSNLFVV; listed as Homo sapiens) [compound 136]” here?
**A.** Its value is ““+++” (≥50 = +++)”.

**Q.** With “460 (AMLEKNYKL; listed as Homo sapiens) [compound 460]” as the substance, how does the “Peptide exchange” value read?
**A.** The value was ““++++” (≥75% = ++++)”.

**Q.** For “270 (LLLDEEGTFSL; listed as Homo sapiens) [compound 270]”, which “Peptide exchange” value is on record?
**A.** The value was ““++” (≥20% = ++)”.

**Q.** Which “Peptide exchange” value does the source give for “41 (SLMPHIPGL; listed as Homo sapiens) [compound 41]” here?
**A.** Its value is ““+++” (≥50 = +++)”.

**Q.** With “434 (KVSNSGITRV; listed as Homo sapiens) [compound 434]” as the substance, how does the “Peptide exchange” value read?
**A.** The value was ““++” (≥20% = ++)”.

**Q.** How did the “Peptide exchange” value turn out when “239 (AAFAGKLLSV; listed as Homo sapiens) [compound 239]” was run?
**A.** Its value is ““+++” (≥50 = +++)”.

**Q.** With “158 (KLFDVDEDGYI; listed as Homo sapiens) [compound 158]” as the substance, how does the “Peptide exchange” value read?
**A.** The value was ““+++” (≥50 = +++)”.

**Q.** For “298 (VMITKLVEV; listed as Homo sapiens) [compound 298]”, which “Peptide exchange” value is on record?
**A.** The value was ““+++” (≥50 = +++)”.

**Q.** Which “Peptide exchange” value does the source give for “168 (KILDADIQL; listed as Homo sapiens) [compound 168]” here?
**A.** Its value is ““++++” (≥75% = ++++)”.

**Q.** Which “Peptide exchange” value does the source give for “5 (HLTEVYPEL; listed as Homo sapiens) [compound 5]” here?
**A.** Its value is ““+++” (≥50 = +++)”.

**Q.** “451 (LLLLDTVTMQV; listed as Homo sapiens) [compound 451]” was tested. Which “Peptide exchange” value did it give?
**A.** The value was ““++” (≥20% = ++)”.

**Q.** For “517 (LLMPIPEGLTL; listed as Homo sapiens) [compound 517]”, which “Peptide exchange” value is on record?
**A.** Its value is ““+++” (≥50 = +++)”.

**Q.** “509 (FLFDTKPLIV; listed as Homo sapiens) [compound 509]” was tested. Which “Peptide exchange” value did it give?
**A.** Its value is ““+++” (≥50 = +++)”.

**Q.** With “598 (FLFPHSVLV; listed as Homo sapiens) [compound 598]” as the substance, how does the “Peptide exchange” value read?
**A.** Its value is ““+++” (≥50 = +++)”.

**Q.** For “160 (FLFDEEIEQI; listed as Homo sapiens) [compound 160]”, which “Peptide exchange” value is on record?
**A.** Its value is ““+++” (≥50 = +++)”.

**Q.** For “545 (LLADLLHNV; listed as Homo sapiens) [compound 545]”, which “Peptide exchange” value is on record?
**A.** Its value is ““+++” (≥50 = +++)”.

**Q.** Which “Peptide exchange” value does the source give for “276 (ALFTFSPLTV; listed as Homo sapiens) [compound 276]” here?
**A.** Its value is ““+++” (≥50 = +++)”.

**Q.** For “567 (SLLPLDDIVRV; listed as Homo sapiens) [compound 567]”, which “Peptide exchange” value is on record?
**A.** The value was ““+++” (≥50 = +++)”.

**Q.** For “138 (YQYPRAILSV; listed as Homo sapiens) [compound 138]”, which “Peptide exchange” value is on record?
**A.** The value was ““+++” (≥50 = +++)”.

**Q.** “184 (YLMDINGKMWL; listed as Homo sapiens) [compound 184]” was tested. Which “Peptide exchange” value did it give?
**A.** The value was ““+++” (≥50 = +++)”.

**Q.** For “594 (IMLKGDNITL; listed as Homo sapiens) [compound 594]”, which “Peptide exchange” value is on record?
**A.** The value was ““+++” (≥50 = +++)”.

**Q.** How did the “Peptide exchange” value turn out when “595 (VLLSIYPRV; listed as Homo sapiens) [compound 595]” was run?
**A.** Its value is ““+++” (≥50 = +++)”.

**Q.** “544 (LLWDVPAPSL; listed as Homo sapiens) [compound 544]” was tested. Which “Peptide exchange” value did it give?
**A.** Its value is ““+++” (≥50 = +++)”.

**Q.** “93 (LLQAIKLYL; listed as Homo sapiens) [compound 93]” was tested. Which “Peptide exchange” value did it give?
**A.** The value was ““++” (≥20% = ++)”.

**Q.** With “553 (SLLNQDLHWSL; listed as Homo sapiens) [compound 553]” as the substance, how does the “Peptide exchange” value read?
**A.** Its value is ““++++” (≥75% = ++++)”.

**Q.** “401 (ILLDDTGLAYI; listed as Homo sapiens) [compound 401]” was tested. Which “Peptide exchange” value did it give?
**A.** Its value is ““+++” (≥50 = +++)”.

**Q.** How did the “Peptide exchange” value turn out when “607 (RLYSGISGLEL; listed as Homo sapiens) [compound 607]” was run?
**A.** The value was ““+++” (≥50 = +++)”.

**Q.** With “78 (SLFSSLEPQIQPV; listed as Homo sapiens) [compound 78]” as the substance, how does the “Peptide exchange” value read?
**A.** The value was ““+++” (≥50 = +++)”.

**Q.** “584 (ALAEVAAMENV; listed as Homo sapiens) [compound 584]” was tested. Which “Peptide exchange” value did it give?
**A.** The value was ““+++” (≥50 = +++)”.

**Q.** How did the “Peptide exchange” value turn out when “455 (SLLKEPQKVQL; listed as Homo sapiens) [compound 455]” was run?
**A.** The value was ““++” (≥20% = ++)”.

**Q.** How did the “Peptide exchange” value turn out when “501 (LLDPNVKSIFV; listed as Homo sapiens) [compound 501]” was run?
**A.** The value was ““+++” (≥50 = +++)”.

**Q.** For “474 (YLDPALELGPRNV; listed as Homo sapiens) [compound 474]”, which “Peptide exchange” value is on record?
**A.** Its value is ““+++” (≥50 = +++)”.

**Q.** With “141 (YLDFSNNRL; listed as Homo sapiens) [compound 141]” as the substance, how does the “Peptide exchange” value read?
**A.** The value was ““++” (≥20% = ++)”.

**Q.** “491 (GLNDRSDAV; listed as Homo sapiens) [compound 491]” was tested. Which “Peptide exchange” value did it give?
**A.** The value was ““++” (≥20% = ++)”.

**Q.** For “252 (LLIGTDVSL; listed as Homo sapiens) [compound 252]”, which “Peptide exchange” value is on record?
**A.** Its value is ““+++” (≥50 = +++)”.

**Q.** With “32 (KLDDLTQDLTV; listed as Homo sapiens) [compound 32]” as the substance, how does the “Peptide exchange” value read?
**A.** Its value is ““++” (≥20% = ++)”.

**Q.** Which “Peptide exchange” value does the source give for “592 (RLLSAAENFL; listed as Homo sapiens) [compound 592]” here?
**A.** The value was ““+++” (≥50 = +++)”.

**Q.** With “123 (NLWDLTDASVV; listed as Homo sapiens) [compound 123]” as the substance, how does the “Peptide exchange” value read?
**A.** The value was ““+++” (≥50 = +++)”.

**Q.** “408 (VLDDSIYLV; listed as Homo sapiens) [compound 408]” was tested. Which “Peptide exchange” value did it give?
**A.** Its value is ““++” (≥20% = ++)”.

**Q.** With “399 (YLFEPLYHV; listed as Homo sapiens) [compound 399]” as the substance, how does the “Peptide exchange” value read?
**A.** The value was ““+++” (≥50 = +++)”.

**Q.** How did the “Peptide exchange” value turn out when “468 (YLRSVGDGETV; listed as Homo sapiens) [compound 468]” was run?
**A.** Its value is ““+++” (≥50 = +++)”.

**Q.** With “465 (QLCDLNAEL; listed as Homo sapiens) [compound 465]” as the substance, how does the “Peptide exchange” value read?
**A.** The value was ““+++” (≥50 = +++)”.

**Q.** With “616 (VLIDEVESL; listed as Homo sapiens) [compound 616]” as the substance, how does the “Peptide exchange” value read?
**A.** The value was ““+++” (≥50 = +++)”.

**Q.** Which “Peptide exchange” value does the source give for “222 (NLIENVQRL; listed as Homo sapiens) [compound 222]” here?
**A.** The value was ““++” (≥20% = ++)”.

**Q.** How did the “Peptide exchange” value turn out when “2 (SLLEADPFL; listed as Homo sapiens) [compound 2]” was run?
**A.** Its value is ““+++” (≥50 = +++)”.

**Q.** With “82 (FLSSVTYNL; listed as Homo sapiens) [compound 82]” as the substance, how does the “Peptide exchange” value read?
**A.** Its value is ““+++” (≥50 = +++)”.

**Q.** For “86 (NLIGKIENV; listed as Homo sapiens) [compound 86]”, which “Peptide exchange” value is on record?
**A.** The value was ““+++” (≥50 = +++)”.

**Q.** With “113 (GLLPTPLFGV; listed as Homo sapiens) [compound 113]” as the substance, how does the “Peptide exchange” value read?
**A.** The value was ““+++” (≥50 = +++)”.

**Q.** With “524 (ALIENLTHQI; listed as Homo sapiens) [compound 524]” as the substance, how does the “Peptide exchange” value read?
**A.** Its value is ““++” (≥20% = ++)”.

**Q.** With “361 (ALYELEGTTV; listed as Homo sapiens) [compound 361]” as the substance, how does the “Peptide exchange” value read?
**A.** The value was ““+++” (≥50 = +++)”.

**Q.** Which “Peptide exchange” value does the source give for “446 (QLIPALAKV; listed as Homo sapiens) [compound 446]” here?
**A.** The value was ““+++” (≥50 = +++)”.

**Q.** Which “Peptide exchange” value does the source give for “473 (AMATESILHFA; listed as Homo sapiens) [compound 473]” here?
**A.** The value was ““+++” (≥50 = +++)”.

**Q.** With “15 (VLLTFKIFL; listed as Homo sapiens) [compound 15]” as the substance, how does the “Peptide exchange” value read?
**A.** The value was ““++” (≥20% = ++)”.

**Q.** With “402 (VLFSGALLGL; listed as Homo sapiens) [compound 402]” as the substance, how does the “Peptide exchange” value read?
**A.** Its value is ““++” (≥20% = ++)”.

**Q.** “150 (RLWEEGEELEL; listed as Homo sapiens) [compound 150]” was tested. Which “Peptide exchange” value did it give?
**A.** Its value is ““+++” (≥50 = +++)”.

**Q.** How did the “Peptide exchange” value turn out when “216 (NLWEDPYYL; listed as Homo sapiens) [compound 216]” was run?
**A.** The value was ““+++” (≥50 = +++)”.

**Q.** With “193 (QLLDADGFLNV; listed as Homo sapiens) [compound 193]” as the substance, how does the “Peptide exchange” value read?
**A.** The value was ““+++” (≥50 = +++)”.

**Q.** How did the “Peptide exchange” value turn out when “50 (SLSELEALM; listed as Homo sapiens) [compound 50]” was run?
**A.** The value was ““+++” (≥50 = +++)”.

**Q.** For “257 (SIFSAFLSV; listed as Homo sapiens) [compound 257]”, which “Peptide exchange” value is on record?
**A.** The value was ““+++” (≥50 = +++)”.

**Q.** How did the “Peptide exchange” value turn out when “620 (KLLNKIYEA; listed as Homo sapiens) [compound 620]” was run?
**A.** The value was ““++++” (≥75% = ++++)”.

**Q.** With “375 (SLTETIEGV; listed as Homo sapiens) [compound 375]” as the substance, how does the “Peptide exchange” value read?
**A.** Its value is ““++” (≥20% = ++)”.

**Q.** For “561 (YLQLTQSEL; listed as Homo sapiens) [compound 561]”, which “Peptide exchange” value is on record?
**A.** The value was ““+++” (≥50 = +++)”.

**Q.** “398 (KLLEEDGTIITL; listed as Homo sapiens) [compound 398]” was tested. Which “Peptide exchange” value did it give?
**A.** Its value is ““++” (≥20% = ++)”.

**Q.** With “312 (IISDLTIAL; listed as Homo sapiens) [compound 312]” as the substance, how does the “Peptide exchange” value read?
**A.** The value was ““+++” (≥50 = +++)”.

**Q.** “282 (LLADVVPTT; listed as Homo sapiens) [compound 282]” was tested. Which “Peptide exchange” value did it give?
**A.** The value was ““+++” (≥50 = +++)”.
